Data taken from patent US20260049151A1 (SHENGHE CHINA BIOPHARMACEUTICAL, published 2026).
Read-outs that look alike come from different tables or passages of the source.

T1: Human-TNFR2-His (human, UniProt P20333 23-257)
T1 construct: Bought protein; also called human TNFR2 protein; TNFR2 protein; not shown: His tag
T1 sequence (looked up): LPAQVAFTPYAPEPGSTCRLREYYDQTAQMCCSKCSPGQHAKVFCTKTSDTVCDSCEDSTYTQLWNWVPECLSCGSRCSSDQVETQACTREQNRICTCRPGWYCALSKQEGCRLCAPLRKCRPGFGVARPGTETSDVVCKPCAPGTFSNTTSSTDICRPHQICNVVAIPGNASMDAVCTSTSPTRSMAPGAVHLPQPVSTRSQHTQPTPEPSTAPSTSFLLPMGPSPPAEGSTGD

T2: Human TNFR2 mFc (human, UniProt P20333 23-257)
T2 construct: Bought protein; not shown: mFc
T2 sequence (looked up): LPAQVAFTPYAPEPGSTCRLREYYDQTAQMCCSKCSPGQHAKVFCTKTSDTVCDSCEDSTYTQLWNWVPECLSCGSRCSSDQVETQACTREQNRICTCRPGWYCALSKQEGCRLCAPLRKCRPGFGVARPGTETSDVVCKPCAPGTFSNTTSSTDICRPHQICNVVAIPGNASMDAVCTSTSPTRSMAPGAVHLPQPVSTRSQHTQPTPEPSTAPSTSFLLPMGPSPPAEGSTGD

B1: Positive control 1 (anti-TNFR2 antibody, human IgG1) (antibody, V domains shown)
VH: EVQLVQSGAEVKKPGATVKISCKVSGYSITDYLLHWVQQAPGKGLEWMGWIDPEDAKTKYGQKFQSRVTITADTSTDTAYMELSSLRSEDTAVYYCAANSGTGTMDAWGQGTLVTVSS
VL: DIVMTQSPATLSVSPGERATLSCKASQNVGSNVDWYQQKPGQSPRVLIYKASIRYTGIPARFSGSGSGTEFTLTISILQSEDFAVYFCMQSKSYPITFGQGTKLEIK
B2: Antibody A (bispecific antibody, human IgG1, kappa)
light: DIQMTQSPSSLSASLGDRVTISCSASQGISNYLNWYQQKPDGTVKLLIYYTSTLHSGVPSRFSGSGSGTDYTLTISSLQPEDIATYYCQQYSKLPWTFGGGTKLEIKRTVAAPSVFIFPPSDEQLKSGTASVVCLLNNFYPREAKVQWKVDNALQSGNSQESVTEQDSKDSTYSLSSTLTLSKADYEKHKVYACEVTHQGLSSPVTKSFNRGEC
heavy: not shown
notes: IgG1 subtype; full-length 4-1BB antibody with TNFR2 scFv at the C-terminus of the heavy chains; two identical first and two identical second peptide chains

Experiments:
[1] = target: T1, Human-TNFR2-His; assay: ELISA: Human-TNFR2-His coated (0.1 ug/mL), antibody titrated, goat anti-human IgG Fc detection (Example 2)
Procedure: (§1) Human-TNFR2-His (manufacturer: SINO, CAT: 10417-H08H, LOT: LC15NO0412) was diluted to 0.1 μg/mL with a coating solution (1×PBS, pH7.4), and coated in 96-well ELISA plate at 100 µL/well overnight at 4° C. The coating solution was poured off. Each well was washed with 1×PBST at 300 μL, washed 4 times with a plate washer, and patted dry on a flat paper. It was blocked with 3% skim milk powder at 300 μL/well, and incubated at 37° C. for 1 h. The blocking solution was poured off, washed 4 times with a plate washer, and patted dry on a flat paper. Negative control and positive control were set up. […] The positive control and antibody were diluted to 10 μg/mL with 3% skim milk powder as the starting concentration, and then diluted by 3-fold gradient (11 gradients in total), and a blank well was set up and only the diluent was added. It was incubated at 37° C. for 1 h at 100 μL/well. The liquid in the well was discarded, washed 4 times with a plate washer, and patted dry on a flat paper. Goat anti-human IgG Fc was diluted with 3% skim milk powder at 1:10000, and incubated at 37° C. for 1 h at 100 μL/well. It was washed 6 times with a plate washer, and patted dry on a flat paper. TMB color developing solution was added at 100 μL/well, and wrapped with aluminum foil. Color development was performed at 37° C. in the dark for 8 min. Termination solution 1M HCl was added to terminate the color development reaction at 100 μL/well. Readings were taken at 450 nm on an ELISA reader.

[2] = target: T1, Human-TNFR2-His; assay: BLI, antibody on AHC sensor, 100 nM TNFR2-His in solution
Procedure: The AHC sensor was soaked in 0.02% PBST (0.02% Tween 20, pH 7.4, 1×PBS) as a buffer for 600 s to remove the sucrose covering the sensor surface. The AHC sensor was equilibrated with 0.02% PBST (0.02% Tween 20, pH 7.4, 1×PBS) as a buffer for 60 s, the antibody in the sample plate was solidified for 300 s, and the secondary equilibration buffer was used for 180 s. 100 nM human-TNFR2-His (manufacturer: SINO, CAT: 10417-H08H, LOT: LC15NO0412) protein was bound to the antibody for 300 s and then dissociated for 600 s. After dissociation, 10 mM glycine (pH 2.0) was used as a regeneration buffer for 30 s. The sensor was regenerated with 10 mM glycine (pH 2.0).

[3] = target: T1, Human-TNFR2-His; assay: ELISA: Human-TNFR2-His coated (0.1 ug/mL), antibody titrated, goat anti-human IgG Fc detection (Example 2); remark: listed apart in the source
Procedure: as §1

[4] = target: T1, Human-TNFR2-His; assay: as above; remark: listed apart in the source
Procedure: as §1

[5] = target: T1, Human-TNFR2-His; assay: as above; remark: listed apart in the source
Procedure: as §1

[6] = target: T3, Human 4-1BB Fc (human, UniProt Q07011 24-186); assay: bridging ELISA: Human 4-1BB Fc coated (0.3 ug/mL), antibody titrated, then Human-TNFR2-His (0.3 ug/mL), HRP anti-His detection (Example 4)
T3 construct: same catalogue and lot number as Human 4-1BB His; not shown: Fc
T3 sequence (Q07011 24-186 limits assumed): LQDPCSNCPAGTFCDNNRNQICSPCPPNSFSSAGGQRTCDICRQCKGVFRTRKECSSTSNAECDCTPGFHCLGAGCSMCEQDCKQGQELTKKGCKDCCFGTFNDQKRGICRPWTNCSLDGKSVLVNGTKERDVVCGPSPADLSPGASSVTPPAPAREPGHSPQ
Procedure: Human 4-1BB Fc (manufacturer: Acro, CAT: 41B-H5258, LOT: 198-2146F1-W6) was diluted to 0.3 μg/mL with a coating solution (1×PBS, pH7.4) and coated into a 96-well ELISA plate at 100 µL/well at 4° C. overnight. The coating solution was poured off. Each well was washed with 1×PBST at 300 μL, washed 4 times with a plate washer, and patted dry on a flat sheet. It was blocked with 3% skim milk powder at 300 μL/well, and incubated at 37° C. for 1 h. The blocking solution was poured off, washed 4 times with a plate washer, and patted dry on a flat sheet. […] Starting at 50 nM, which was used as the initial concentration for 3-fold dilution, a total of 10 gradients were diluted, and a blank well was set up and only the diluent was added. It was incubated at 37° C. for 1 h at 100 μL/well. The liquid in the well was discarded, washed 4 times with a plate washer, and patted dry on a flat paper. Human-TNFR2-His (manufacturer: Sino, CAT: 10417-H08H, LOT: LC15NO0412) was diluted to 0.3 μg/mL, 100 μL was added to each well, and incubated at room temperature for 1 h. The plate was washed 3 times with PBST, and then the HRP-labeled his antibody was diluted with sample diluent at 1:5000, 100 μ L was added to each well, and incubated at room temperature for 1 h. It was washed 6 times with a plate washer, and patted dry on a flat paper. TMB color developing solution was added at 100 μL/well, and wrapped with aluminum foil. Color development was performed at 37° C. in the dark for 8 min. Termination solution 1M HCl was added to terminate the color development reaction at 100 μL/well. Readings were taken at 450 nm on an ELISA reader.

[7] = target: T4, Human 4-1BB His (human, UniProt Q07011 24-186); assay: ELISA: Human 4-1BB His coated (0.2 ug/mL), antibody titrated, goat anti-human IgG Fc detection (Example 3)
T4 construct: Bought protein; lots 198-2146F1-W6 and 2407c-214FF1-YC; also called human 4-1BB protein; 4-1BB protein; not shown: His tag
T4 sequence (Q07011 24-186 limits assumed): as above
Procedure: Human 4-1BB His (manufacturer: Acro, CAT: 41B-H5258, LOT: 198-2146F1-W6) was diluted to 0.2 μg/mL with a coating solution (1×PBS, pH7.4), and coated in 96-well ELISA plate at 100 μL/well overnight at 4° C. The coating solution was poured off. Each well was washed with 1×PBST at 300 μL, washed 4 times with a plate washer, and patted dry on a flat paper. It was blocked with 3% skim milk powder at 300 μL/well, and incubated at 37° C. for 1 h. The blocking solution was poured off, washed 4 times with a plate washer, and patted dry on a flat paper. Negative control and positive control were set up. […] The variable region of the antibody sequence of the positive control consists of SEQ ID NO: 15 and SEQ ID NO: 19, with the addition of the constant region of human IgG1 (SEQ ID NO: 46 and SEQ ID NO: 47). The positive control and antibody were diluted to 10 μg/mL with 3% skim milk powder as the starting concentration, and then diluted by 3-fold gradient (11 gradients in total), and a blank well was set up and only the diluent was added. It was incubated at 37° C. for 1 h at 100 μL/well. The liquid in the well was discarded, washed 4 times with a plate washer, and patted dry on a flat paper. Goat anti-human IgG Fc was diluted with 3% skim milk powder at 1:20000, and incubated at 37° C. for 1 h at 100 μL/well. It was washed 6 times with a plate washer, and patted dry on a flat paper. TMB color developing solution was added at 100 μL/well, and wrapped with aluminum foil. Color development was performed at 37° C. in the dark for 8 min. Termination solution 1M HCl was added to terminate the color development reaction at 100 μL/well. Readings were taken at 450 nm on an ELISA reader.

[8] = target: T2, Human TNFR2 mFc; assay: bridging ELISA: Human TNFR2 mFc coated (0.3 ug/mL), antibody titrated, then Human 4-1BB His (0.3 ug/mL), HRP anti-His detection (Example 5)
Procedure: Human TNFR2 mFc (manufacturer: Kaixia, CAT: TN-HM3R2, LOT: 031202) was diluted to 0.3 μg/mL with a coating solution (1×PBS, pH7.4) and coated into a 96-well ELISA plate at 100 μL/well at 4° C. overnight. The coating solution was poured off. Each well was washed with 1×PBST at 300 μL, washed 4 times with a plate washer, and patted dry on a flat paper. It was blocked with 3% skim milk powder at 300 μL/well, and incubated at 37° C. for 1 h. The blocking solution was poured off, washed 4 times with a plate washer, and patted dry on a flat paper. […] Starting at 50 nM, which was used as the initial concentration for 3-fold dilution, a total of 10 gradients were diluted, and a blank well was set up and only the diluent was added. It was incubated at 37° C. for 1 h at 100 µL/well. The liquid in the well was discarded, washed 4 times with a plate washer, and patted dry on a flat paper. Human 4-1BB His (manufacturer: Acro, CAT: 41B-H5258, LOT: 198-2146F1-W6) was diluted to 0.3 μg/mL, 100 μL was added to each well, and incubated at room temperature for 1 h. The plate was washed 3 times with PBST, and then the HRP-labeled his antibody was diluted with sample diluent at 1:5000, 100 μ L was added to each well, and incubated at room temperature for 1 h. It was washed 6 times with a plate washer, and patted dry on a flat paper. TMB color developing solution was added at 100 μL/well, and wrapped with aluminum foil. Color development was performed at 37° C. in the dark for 8 min. Termination solution 1M HCl was added to terminate the color development reaction at 100 μL/well. Readings were taken at 450 nm on an ELISA reader.

| Binder | EC50 (read off the curve) [1] [pM] | Kd [2] [pM] | koff [2] [s⁻¹] | kon [2] [M⁻¹ s⁻¹] | EC50 (read off the curve) [3] [pM] | EC50 (read off the curve) [4] [pM] | EC50 (read off the curve) [5] [pM] | EC50 (read off the curve) [6] [pM] | EC50 (read off the curve) [7] [pM] | EC50 (read off the curve) [8] [pM] |
| --- | --- | --- | --- | --- | --- | --- | --- | --- | --- | --- |
| B1 | ~30 | 72.4 | 1.86e-05 | 257000 | ~30 | ~30 | ~30 |  |  |  |
| B2 | ~400 |  |  |  |  |  |  | ~500 | ~200 | ~200 |
